Laboratory results as given in patent EP1638605B1 (Raptor Pharmaceutical, Inc., dated 2014).

T1: recombinant human alpha-L-iduronidase (Aldurazyme) (human, UniProt P35475 27-653, limits assumed)
T1 construct: also called rhIDU; Recombinant human IDU
T1 sequence (looked up): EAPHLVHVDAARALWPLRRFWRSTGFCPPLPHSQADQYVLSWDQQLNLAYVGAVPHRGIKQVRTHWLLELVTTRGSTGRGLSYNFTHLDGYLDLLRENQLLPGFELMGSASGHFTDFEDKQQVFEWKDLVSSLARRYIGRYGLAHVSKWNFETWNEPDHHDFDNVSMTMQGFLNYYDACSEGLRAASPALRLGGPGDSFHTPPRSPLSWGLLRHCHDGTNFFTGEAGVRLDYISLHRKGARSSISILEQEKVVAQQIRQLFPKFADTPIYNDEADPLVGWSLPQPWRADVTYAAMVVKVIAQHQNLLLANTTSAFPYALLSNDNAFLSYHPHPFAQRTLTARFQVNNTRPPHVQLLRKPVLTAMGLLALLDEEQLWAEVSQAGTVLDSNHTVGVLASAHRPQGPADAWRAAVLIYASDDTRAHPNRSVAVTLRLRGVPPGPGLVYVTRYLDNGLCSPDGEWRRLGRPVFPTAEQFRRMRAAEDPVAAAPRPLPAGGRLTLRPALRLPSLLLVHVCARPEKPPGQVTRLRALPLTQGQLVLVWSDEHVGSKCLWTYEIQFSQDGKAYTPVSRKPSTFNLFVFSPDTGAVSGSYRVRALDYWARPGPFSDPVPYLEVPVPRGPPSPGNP


What was measured:
[1] = biological target: mLRP/LRPTmMegT mini-receptor (fourth ligand binding and transmembrane domains of LRP1 with the C-terminal cytoplasmic tail of megalin) on MDCK cells (UniProt Q07954); assay: cell-based or functional assay
[2] = biological target: T1, recombinant human alpha-L-iduronidase …; assay: ligand blot, sLRP2 (1 µg/well) on membrane, antibody detection

Sequence of mLRP/LRPTmMegT mini-receptor (fourth ligand binding and transmembrane domains of LRP1 with the C-terminal cytoplasmic tail of megalin) on MDCK cells (Q07954 3293-4444): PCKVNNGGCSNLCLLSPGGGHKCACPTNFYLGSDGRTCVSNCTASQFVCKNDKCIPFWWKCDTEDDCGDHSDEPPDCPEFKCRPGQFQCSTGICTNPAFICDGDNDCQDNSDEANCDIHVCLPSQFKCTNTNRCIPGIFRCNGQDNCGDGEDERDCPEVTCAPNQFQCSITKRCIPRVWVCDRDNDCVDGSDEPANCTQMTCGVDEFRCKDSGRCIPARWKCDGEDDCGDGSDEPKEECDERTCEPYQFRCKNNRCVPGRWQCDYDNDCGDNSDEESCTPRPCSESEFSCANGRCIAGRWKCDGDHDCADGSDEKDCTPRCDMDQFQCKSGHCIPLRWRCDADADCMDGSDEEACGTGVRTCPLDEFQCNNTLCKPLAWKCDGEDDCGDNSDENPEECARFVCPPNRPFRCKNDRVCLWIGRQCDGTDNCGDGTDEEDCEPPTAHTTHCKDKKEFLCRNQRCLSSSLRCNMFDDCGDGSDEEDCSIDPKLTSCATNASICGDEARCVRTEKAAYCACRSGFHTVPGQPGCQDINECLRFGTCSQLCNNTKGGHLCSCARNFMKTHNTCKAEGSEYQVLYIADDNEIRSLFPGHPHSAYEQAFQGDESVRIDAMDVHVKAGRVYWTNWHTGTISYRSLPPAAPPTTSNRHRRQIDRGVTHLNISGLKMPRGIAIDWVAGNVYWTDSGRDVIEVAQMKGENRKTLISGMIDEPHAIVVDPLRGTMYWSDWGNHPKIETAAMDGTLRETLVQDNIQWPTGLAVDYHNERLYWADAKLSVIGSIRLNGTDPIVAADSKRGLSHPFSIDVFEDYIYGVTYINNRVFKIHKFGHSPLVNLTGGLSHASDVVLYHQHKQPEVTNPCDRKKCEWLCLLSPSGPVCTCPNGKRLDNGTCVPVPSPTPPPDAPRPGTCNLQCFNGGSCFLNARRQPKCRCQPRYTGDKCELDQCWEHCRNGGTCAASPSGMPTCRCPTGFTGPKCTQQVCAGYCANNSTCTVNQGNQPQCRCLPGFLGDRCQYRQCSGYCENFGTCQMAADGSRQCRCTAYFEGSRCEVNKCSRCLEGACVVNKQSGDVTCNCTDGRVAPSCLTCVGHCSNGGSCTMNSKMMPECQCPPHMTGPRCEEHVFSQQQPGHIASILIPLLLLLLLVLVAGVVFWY

| Molecule | apical-to-basolateral permeability coefficient of 125I-RAP across MEGt-transfected MDCK monolayers with excess unlabeled RAP at 2 µg/ml [1] [×10⁻⁶ cm/s] | apical-to-basolateral permeability coefficient of 125I-RAP across MEGt-transfected MDCK monolayers, 60 min [1] [×10⁻⁶ cm/s] | ratio of apical-to-basolateral to basolateral-to-apical permeability coefficient of 125I-RAP in MEGt-transfected MDCK cells [1] [fold] | binding result [2] |
| --- | --- | --- | --- | --- |
| receptor-associated protein (RAP) (ligand) | 6.3 | 18.1 | 460 |  |
| sLRP2, the entire second ligand-binding domain of human LRP1 (recombinant) (receptor, UniProt Q07954 806-1183, looked up, also called immobilized LRP) KCRVNNGGCSSLCLATPGSRQCACAEDQVLDADGVTCLANPSYVPPPQCQPGEFACANSRCIQERWKCDGDNDCLDNSDEAPALCHQHTCPSDRFKCENNRCIPNRWLCDGDNDCGNSEDESNATCSARTCPPNQFSCASGRCIPISWTCDLDDDCGDRSDESASCAYPTCFPLTQFTCNNGRCININWRCDNDNDCGDNSDEAGCSHSCSSTQFKCNSGRCIPEHWTCDGDNDCGDYSDETHANCTNQATRPPGGCHTDEFQCRLDGLCIPLRWRCDGDTDCMDSSDEKSCEGVTHVCDPSVKFGCKDSARCISKAWVCDGDNDCEDNSDEENCESLACRPPSHPCANNTSVCLPPDKLCDGNDDCGDGSDEGELCD |  |  |  | no binding |
